According to patent publication US20150284467A1 (MAX DELBR CK CENTRUM F R MOLEKULARE MEDIZIN, published 2015):

Tests used:
[1] = target: T1, extracellular domain of human CD269 (BCMA, TNFRSF17), purified (human, UniProt Q02223 4-54); assay: surface plasmon resonance with several concentrations of BCMA (FIG. 1c)
T1 construct: also called BCMA extracellular domain
T1 sequence: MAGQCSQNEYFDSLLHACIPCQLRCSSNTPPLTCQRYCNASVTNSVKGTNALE

[2] = target: T1, extracellular domain of human CD269 …; assay: SPR, value printed beside the trace for 1.1 nM BCMA; neither quantity nor unit is printed on the sheet: the five printed values average 5.40E-11, which is the mean Kd of 54 pM in paragraph 181
[3] = target: T1, extracellular domain of human CD269 …; assay: SPR, value printed beside the trace for 3.3 nM BCMA; neither quantity nor unit is printed on the sheet: the five printed values average 5.40E-11, which is the mean Kd of 54 pM in paragraph 181
[4] = target: T1, extracellular domain of human CD269 …; assay: SPR, value printed beside the trace for 10.0 nM BCMA; neither quantity nor unit is printed on the sheet: the five printed values average 5.40E-11, which is the mean Kd of 54 pM in paragraph 181
[5] = target: T1, extracellular domain of human CD269 …; assay: SPR, value printed beside the trace for 30.0 nM BCMA; neither quantity nor unit is printed on the sheet: the five printed values average 5.40E-11, which is the mean Kd of 54 pM in paragraph 181
[6] = target: T1, extracellular domain of human CD269 …; assay: SPR, value printed beside the trace for 90.0 nM BCMA; neither quantity nor unit is printed on the sheet: the five printed values average 5.40E-11, which is the mean Kd of 54 pM in paragraph 181

- Kd [1]: 0.054 nM
- Kd [2]: 0.021 nM
- Kd [3]: 0.0362 nM
- Kd [4]: 0.0555 nM
- Kd [5]: 0.0695 nM
- Kd [6]: 0.088 nM
B1: J22.9-xi chimeric antibody (mouse VH/VL of hybridoma J22.9 on human IgG1 and kappa constant domains) (antibody, V domains shown)
VH: QVQLQQSGGGLVQPGGSLKLSCAASGIDFSRYWMSWVRRAPGKGLEWIGEINPDSSTINYAPSLKDKFIISRDNAKNTLYLQMSKVRSEDTALYYCASLYYDYGDAMDYWGQGTSVTVSS
VL: DIVMTQSQRFMTTSVGDRVSVTCKASQSVDSNVAWYQQKPRQSPKALIFSASLRFSGVPARFTGSGSGTDFTLTISNLQSEDLAEYFCQQYNNYPLTFGAGTKLELKR
modifications: N-linked oligosaccharide chain at Asn297
notes: Full length IgG made in 293-6E cells; the constant domains are marked 'Used in J22.9-xi'
